These results are taken from paper PMC2916701 (Molecular cell, 2010).

Data set [1] deals with the molecule itself. The data set is described as follows: negative stain electron microscopy.
The data set “AUC” concerns the molecule itself. As to the kind of experiment: AUC.

Several values for one entry are separate records, joined by “and”; a condition that tells them apart may be missing. Equal entries are not always repeated.

B1: His6-Cdc15(F-BAR) (amino acids 19-295) (domain or fragment, S. pombe, UniProt Q09822 19-295, looked up)
chain: SVKFRDNFWGSEDAGMDALMSRTKSSLSVLESIDEFYAKRASIEREYASKLQELAASSADIPEVGSTLNNILSMRTETGSMAKAHEEVSQQINTELRNKIREYIDQTEQQKVVAANAIEELYQKKTALEIDLSEKKDAYEYSCNKLNSYMRQTKKMTGRELDKYNLKIRQAALAVKKMDAEYRETNELLLTVTREWIDRWTEVCDAFQHIEEYRLEFLKTNMWAYANIISTACVKDDESCEKIRLTLENTNIDEDITQMIQNEGTGTTIPPLPEFND
For the protein B1, the binding result in data set [1] was “binds”.

B2: hyperphosphorylated Cdc15-TAP (natural protein, S. pombe, UniProt Q09822 1-927, looked up)
chain: MEVNGVSQSEAAPYVTKSSVKFRDNFWGSEDAGMDALMSRTKSSLSVLESIDEFYAKRASIEREYASKLQELAASSADIPEVGSTLNNILSMRTETGSMAKAHEEVSQQINTELRNKIREYIDQTEQQKVVAANAIEELYQKKTALEIDLSEKKDAYEYSCNKLNSYMRQTKKMTGRELDKYNLKIRQAALAVKKMDAEYRETNELLLTVTREWIDRWTEVCDAFQHIEEYRLEFLKTNMWAYANIISTACVKDDESCEKIRLTLENTNIDEDITQMIQNEGTGTTIPPLPEFNDYFKENGLNYDIDQLISKAPSYPYSSSRPSASASLASSPTRSAFRPKTSETVSSEVVSSPPTSPLHSPVKPVSNEQVEQVTEVELSIPVPSIQEAESQKPVLTGSSMRRPSVTSPTFEVAARPLTSMDVRSSHNAETEVQAIPAATDISPEVKEGKNSENAITKDNDDIILSSQLQPTATGSRSSRLSFSRHGHGSQTSLGSIKRKSIMERMGRPTSPFMGSSFSNMGSRSTSPTKEGFASNQHATGASVQSDELEDIDPRANVVLNVGPNMLSVGEAPVESTSKEEDKDVPDPIANAMAELSSSMRRRQSTSVDDEAPVSLSKTSSSTRLNGLGYHSRNTSIASDIDGVPKKSTLGAPPAAHTSAQMQRMSNSFASQTKQVFGEQRTENSARESLRHSRSNMSRSPSPMLSRRSSTLRPSFERSASSLSVRQSDVVSPAPSTRARGQSVSGQQRPSSSMSLYGEYNKSQPQLSMQRSVSPNPLGPNRRSSSVLQSQKSTSSNTSNRNNGGYSGSRPSSEMGHRYGSMSGRSMRQVSQRSTSRARSPEPTNRNSVQSKNVDPRATFTAEGEPILGYVIALYDYQAQIPEEISFQKGDTLMVLRTQEDGWWDGEIINVPNSKRGLFPSNFVQTV
modifications: hyperphosphorylated at many sites (sites not given; Supp. Table 1)
The term stoichiometry N denotes a count of units in the complex or per binding partner. With B2, the “stoichiometry N” value in “AUC” is 2 and 4.
